Data taken from paper PMC4684078.

Target: mCherry-p62 delta PB1 (recombinant) (human)
Assay: SEC-MALS; size exclusion chromatography with static light scattering (Superdex 200 10/300, MiniDawn Treos); 25 mM HEPES pH 7.5, 500 mM NaCl, 1 mM DTT

stoichiometry N: 3
Substance: mCherry-p62 delta PB1 (recombinant) (domain or fragment)
